According to the supplement of paper PMC9732359:
± gives the uncertainty stated by the source.

Assay: protein stability index of a GFP-peptide fusion (yeast GPS) (PSI 1-4); higher = more stable; sorted into four equal gates, so the index is relative within each strain
Outline: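 The protein stability index combines read frequencies across sorting gates, each weighted by its gate number and then summed. To obtain those frequencies, a pooled yeast library of GFP fusions to tiled 17-residue yeast protein peptides, on a plasmid also expressing Cherry, was grown to mid-log phase in leucine-free medium. The cells were sorted into four equal gates by GFP/Cherry ratio before plasmid amplification by PCR and Illumina sequencing.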

Sequence	protein stability index (ubr1∆)	protein stability index (doa10∆)	protein stability index (pdr5∆)	protein stability index (san1∆)
GVKNNLLTPKSGEPIIA [RPO31]	2.62 ± 0.22			
GWSLVGRILQNLLHSYM [YML103C/NUP188]	1.05 ± 0.03	1.85 ± 0.087	1.18 ± 0.06	1.18 ± 0.092
GYDRHITIFSPEGRLYQ [SCL1]	3.06 ± 0.077	2.76 ± 0.11	2.84 ± 0.082	2.96 ± 0.057
GYFIINGSEKVLIAQER [RPB2]	2.15 ± 0.26	3.14 ± 0.21	2.94 ± 0.17	3.16 ± 0.18
GYIKNNKKIYQWNKLTS [POP6]	3.06 ± 0.081	2.93 ± 0.085	2.91 ± 0.089	2.89 ± 0.072
GYRSRTRYMFQRDFRKH [RPL21A]	3.3 ± 0.049	3.16 ± 0.07	3.19 ± 0.08	3.16 ± 0.049
GYVSSLVEPSKVGQFDQ [FAS1]	1.91 ± 0.078	1.52 ± 0.082	1.94 ± 0.082	1.72 ± 0.12
HAKFSPVSTASYRLLPQ [RPC40]	2.23 ± 0.077	1.71 ± 0.076	1.75 ± 0.055	1.84 ± 0.089
HANAAAVYFADTSGLKI [SIN4]	2.49 ± 0.053	2.37 ± 0.067	2.56 ± 0.065	2.23 ± 0.073
HARTAAVTHNLYYDEDI [PUP2]	2.63 ± 0.1	3.21 ± 0.16	3.22 ± 0.17	2.86 ± 0.23
HASKAIGLPRHSLAYLL [RRP6]	1.72 ± 0.037	2.24 ± 0.046	2.2 ± 0.048	2.37 ± 0.059
HAYRDVLAQYHEAKERI [SNF6]	3.31 ± 0.051	2.98 ± 0.066	3.43 ± 0.071	3.09 ± 0.059
HCGALNGVVKKAAAGAG [RPO31]		1.35 ± 0.27	2.38 ± 0.19	
HCITSITLALADAGIEL [MTR3]	1.55 ± 0.097	1.5 ± 0.071	1.86 ± 0.094	
HDADLEVSMNSIFAMGL [RPN1]	2.4 ± 0.034	1.85 ± 0.038	2.69 ± 0.045	2.65 ± 0.047
HDEKSDSLNEWIKFDQE [RPN7]	3.21 ± 0.072	3.19 ± 0.13	3.29 ± 0.22	3.27 ± 0.076
HEAKERIRQKEVTAGEA [SNF6]	2.6 ± 0.074	3 ± 0.18		2.67 ± 0.25
HEDLVNSIESKNLSLQT [COR1]	2.97 ± 0.073	2.96 ± 0.087	2.96 ± 0.074	3.09 ± 0.083
HESTSRTDQYTIDNIDS [YMR129W/POM152]	2.86 ± 0.045	2.84 ± 0.053	2.9 ± 0.053	2.9 ± 0.045
HFENAKVIDLDTKLKAH [YIL149C/MLP2]	2.48 ± 0.073	2.62 ± 0.073	2.73 ± 0.086	2.09 ± 0.11
HFFSKSCSFFAKLSDTL [NUT1]	1.95 ± 0.035	2.06 ± 0.047	1.77 ± 0.041	1.69 ± 0.085
HFQDQKNKKIEVYTKTI [POP7]	2.7 ± 0.086	3.19 ± 0.11	2.83 ± 0.12	3.23 ± 0.084
HFVRDLGTIESAQAETE [DIS3]	2.49 ± 0.095	2.16 ± 0.26	2.42 ± 0.13	2.85 ± 0.21
HGDAAVLLVEKYGAEYD [NAS6]	3.04 ± 0.19	1.94 ± 0.21		2.96 ± 0.22
HGGKMKPEIDENGTLLV [RPR2]	2.97 ± 0.047	3.16 ± 0.078	3.14 ± 0.11	3.05 ± 0.075
HGTSTSAEDEENIIQRL [CDC53]	3.06 ± 0.057	3.13 ± 0.064	3.34 ± 0.059	3.13 ± 0.044

Sequence	protein stability index (ubr1∆)	protein stability index (doa10∆)	protein stability index (pdr5∆)	protein stability index (san1∆)
HHDYRSYYGIVCLMQIS [RRP6]	1.68 ± 0.076	2.03 ± 0.085	1.67 ± 0.067	1.32 ± 0.12
HIEKLENEFVVLLDARD [CDC53]	3.27 ± 0.091	3.35 ± 0.088	3.05 ± 0.081	2.9 ± 0.14
HILPEVPPVENFPVRQW [TAF14]	3.05 ± 0.055	2.71 ± 0.12	3.05 ± 0.088	2.95 ± 0.073
HKCDELITLFNKGELET [RPO31]	2.92 ± 0.1	2.72 ± 0.095	3.15 ± 0.07	2.98 ± 0.094
HKHNIMKNENANPKKLA [CDC53]	2.35 ± 0.057	2.14 ± 0.042	2.31 ± 0.049	2 ± 0.064
HKLRESLPLIVFLRNRL [RPS4A]	1.43 ± 0.043	1.85 ± 0.052	1.57 ± 0.053	1.4 ± 0.1
HKSIELISNLLFSKNRN [YCS4]	2.41 ± 0.05	2.25 ± 0.055	2.47 ± 0.047	2.52 ± 0.046
HKTMSIVGVLQDDADPM [RPT2]	1.85 ± 0.13	1.6 ± 0.18	1.3 ± 0.2	1.58 ± 0.21
HKVQTKLTRELEKKFPD [RPS7B]	3.07 ± 0.055	2.82 ± 0.16	3.07 ± 0.093	3.1 ± 0.058
HLKHENANDETTAVEDE [RPB4]	3.17 ± 0.14	2.92 ± 0.067	3.08 ± 0.093	3.17 ± 0.086
HNQSPRNTYQSAMGKQA [RPB2]	2.25 ± 0.039	2.48 ± 0.063	2.77 ± 0.062	2.37 ± 0.06
HPKLIKNKSGKIFVETK [FAS1]	2.67 ± 0.1	2.3 ± 0.067	2.76 ± 0.067	2.47 ± 0.13
HQNVIIGSNGSGKSNFF [SMC3]	2.85 ± 0.057	3.07 ± 0.086	2.7 ± 0.091	2.84 ± 0.069
HSLREYINGKATALANL [RPO31]	2.99 ± 0.068	3.06 ± 0.086	3.21 ± 0.095	2.57 ± 0.088
HTLCNRCGRRSFHVQKK [RPL37A]	2.85 ± 0.029	2.98 ± 0.035	2.72 ± 0.048	2.83 ± 0.031
HTQANEPNSAKKIRFLQ [RGR1]	3.33 ± 0.18	2.98 ± 0.24	3.51 ± 0.11	3.12 ± 0.22
HVFQYANRPRLVGRKPA [RPC37]	2.69 ± 0.082	2.86 ± 0.23		2.28 ± 0.28
HYDNTTRNSLGNVIQFI [RPO21]	2.86 ± 0.03	2.45 ± 0.04	2.62 ± 0.043	2.87 ± 0.034
IAASAFLSLLNLATKGM [REC8]	1.62 ± 0.046	1.54 ± 0.054	1.52 ± 0.054	1.71 ± 0.1
IAKSQDKKSCSVDDVLS [DPB4]	3.16 ± 0.039	3.28 ± 0.057	3.15 ± 0.077	3.22 ± 0.055
IATDGGRICRPLIIVSD [RET1]	2.14 ± 0.038	2.01 ± 0.046	2.1 ± 0.037	1.73 ± 0.06
ICERIFEQGQALKEDER [RRI2]	3.21 ± 0.19			
ICIVGGYDDFQEEGSFE [FAS2]		2.98 ± 0.16	2.5 ± 0.11	3.5 ± 0.1
ICKNCSAILLSETDKRQ [RPO31]	2.96 ± 0.041	2.59 ± 0.086	2.85 ± 0.058	2.81 ± 0.068
ICNTLNIAKDLKWKKGI [SMC1]	2.69 ± 0.24	1.43 ± 0.1	1.26 ± 0.14	1.45 ± 0.17
